B1: LINE1-mini (parent)
chain: GGCAGAGCUCAACACAGCGUGGCAAAGUGGCUGUGGCUAGACUGCC

Variants of: B1
Test: self-cleavage, relative activity (ratio to wild type); higher = more cleavage; in vitro, sequencing; the parent is a self-cleaving ribozyme

Row | Variant | self-cleavage
1 | GGCAGAGCUCAACACAGAGUGGCAAAGUGGCUGUGGCUAGACUGCC [C18A] | 0.85
2 | GGCAGAGCUCAACACAACGUGGCAAAGUGGCUGUGGCUAGACUGGC [G17A C45G] | 0.04
3 | GGCAGACCGCAACACAGCGUGGCAAAGUGGCUGUGGCUAGACUGCC [G7C U9G] | 0.28
4 | GGCAGAGCUCCACACAGCGUGGCAAAGUGUCUGUGGCUAGACUGCC [A11C G30U] | 0.05
5 | GGCAGAGCUCAAAACAGCGGGGCAAAGUGGCUGUGGCUAGACUGCC [C13A U20G] | 0.1
6 | GGCAGAGCUCAACACAGGGUGGCAAAGUGGCUGCGGCUAGACUGCC [C18G U34C] | 0.03
7 | GGCUGAGUUCAACACAGCGUGGCAAAGUGGCUGUGGCUAGACUGCC [A4U C8U] | 0.26
8 | GGCAGAGCUAAACACAGCGUGGCAAAGUGGCUGUGGCUCGACUGCC [C10A A39C] | 0.05
9 | GGCAGAGCUCAACACAGCGUGGCAAAGUGACUGCGGCUAGACUGCC [G30A U34C] | 0.12
10 | GGCAGAGCUCAACGCAGCGUGGCAAAGUGGCUGUGGCAAGACUGCC [A14G U38A] | 0.52
11 | GGCAGAGCUCAACACAGCGUGGCACAGUCGCUGUGGCUAGACUGCC [A25C G29C] | 0.56
12 | GGCAGAGCUCAACACAGCGUGGCACAGUUGCUGUGGCUAGACUGCC [A25C G29U] | 1.19
13 | GGCAGAGCUCAACUCCGCGUGGCAAAGUGGCUGUGGCUAGACUGCC [A14U A16C] | 0.1
14 | GGCAGAGCUCAACACAGCGUAGCAAAGUGGCUGUGGCUAGACGGCC [G21A U43G] | 0.14
15 | GGCAGAGCUCAACACAGCGUGGCAAACUGGCUGCGGCUAGACUGCC [G27C U34C] | 0.08
16 | GGCCGGGCUCAACACAGCGUGGCAAAGUGGCUGUGGCUAGACUGCC [A4C A6G] | 0.37
17 | GGCAGAGCUCAACACAGCCUGGCAAAGUGGCUGUGGCUAGACGGCC [G19C U43G] | 0.02
18 | GGCAGAGCUCAACACAGCGCGGCAAAGUUGCUGUGGCUAGACUGCC [U20C G29U] | 0.4
19 | GGCAGAGCCCAACACAGCGUGGCAAAGUGGCUGUGGCCAGACUGCC [U9C U38C] | 0.07

Row | Variant | self-cleavage
20 | GGCAGAGCUCAACACAGCGUUGCAAAGUGGCUGUAGCUAGACUGCC [G21U G35A] | 0.16
21 | GGCAGAGCUCUACACAGUGUGGCAAAGUGGCUGUGGCUAGACUGCC [A11U C18U] | 0.32
22 | GGCAGAGCUCAACACAGCGUGACAAAGUGGCUGUGGUUAGACUGCC [G22A C37U] | 0.05
23 | GGCAGAGCUCAACACAGCGUGGCAAAGUGGCUGGGGCUAGAGUGCC [U34G C42G] | 0.05
24 | GGCAGGGCUCAACACAUCGUGGCAAAGUGGCUGUGGCUAGACUGCC [A6G G17U] | 0.04
25 | GGCAGAGCUCAACACAGCGGGGCAAAGUGGGUGUGGCUAGACUGCC [U20G C31G] | 0.04
26 | GGCAGAGCUCAACACAGCGUGGCCAAUUGGCUGUGGCUAGACUGCC [A24C G27U] | 0.55
27 | GGCAAUGCUCAACACAGCGUGGCAAAGUGGCUGUGGCUAGACUGCC [G5A A6U] | 0.12
28 | GGCAGAGCUCAACACAGCGUGACAAAGUGGCUGUGGCUACACUGCC [G22A G40C] | 0.09
29 | GGCGGAGCUCAACACAGCGUGGCAAAGCGGCUGUGGCUAGACUGCC [A4G U28C] | 1.09
30 | CGCAGAGUUCAACACAGCGUGGCAAAGUGGCUGUGGCUAGACUGCC [G1C C8U] | 0.07
31 | GGCAGAGCUCAACACAGCGUGGCAAAGUGGCUGUGUCUAGACUGCA [G36U C46A] | 0.1
32 | GGCAGAGCUCAACACAGCGUGGCAAAGUGGGUGUGGCUAGAUUGCC [C31G C42U] | 0.09
33 | GGCAGAGCUCAACACAGCGUGUCAAAGUGGCUGUGGCUAGACUCCC [G22U G44C] | 0.34
34 | GGCAGAGCUCAACACAGCGAGGCAAAGUGGCUGUGGCUAGACUGCA [U20A C46A] | 0.76
35 | GGCAGAGCUCAACACAGCGUGGCAAAGUGGCUGUGGCUAUAAUGCC [G40U C42A] | 0.09
36 | GGCUGAGCUUAACACAGCGUGGCAAAGUGGCUGUGGCUAGACUGCC [A4U C10U] | 0.19
37 | GGCAGAACCCAACACAGCGUGGCAAAGUGGCUGUGGCUAGACUGCC [G7A U9C] | 0.04
38 | GGCAUAGCUCAACACAGCGUGGCAAAGUGGCUGUGGCUAGACCGCC [G5U U43C] | 0.06

Row | Variant | self-cleavage
39 | GGCAGAGCUCAACACAGCGUGGCCAAGUGGCUGUGGUUAGACUGCC [A24C C37U] | 0.06
40 | AGCAGAGAUCAACACAGCGUGGCAAAGUGGCUGUGGCUAGACUGCC [G1A C8A] | 0.88
41 | GGCAGAGCUCAACACAGCGUGGCAAAGUGGCUGUGGCUGGACGGCC [A39G U43G] | 0.12
42 | GGCAGAGCUCAACACAGCAUGGCAAAGUGGCUGUUGCUAGACUGCC [G19A G35U] | 0.14
43 | GGCAGAGCUCAACACAGCGUGGCAUAGUGGCUGUGGCUAGACUGCA [A25U C46A] | 1.01
44 | GGCAGAGCUCAACACAGCGUCGCAAAGUGGCUGUGGCUAGACUGCG [G21C C46G] | 0.51
45 | GGCAGAGCUCAACACAGCGUGGCAAAGUGGCUGUCGCUAGACAGCC [G35C U43A] | 0.11
46 | GGCAGAGCUCAACACAGCGUGGCAAAGUGGCUGUGGCGAAACUGCC [U38G G40A] | 0.04
47 | GGCAGAGCUCAACACAGCGUGGCAAAGUGGCUGACGCUAGACUGCC [U34A G35C] | 0.13
48 | GGCAGAGCUCAACAUAGCGUGGCAAAGUGGCUGUCGCUAGACUGCC [C15U G35C] | 0.14
49 | GGCAGAUCUCAACACAGCGUGGCAAAGUGGCUGUGGCUAGAGUGCC [G7U C42G] | 0.12
50 | GGCAGAGCUCAACAAAUCGUGGCAAAGUGGCUGUGGCUAGACUGCC [C15A G17U] | 0.09
51 | GGCACAGCUCAACAGAGCGUGGCAAAGUGGCUGUGGCUAGACUGCC [G5C C15G] | 0.03
52 | GGCAGAGCUCAACACAGCGUGCCAAAGUGGCUGUGUCUAGACUGCC [G22C G36U] | 0.1
53 | GGCAGAGCUCAACACAGCGUGGCACACUGGCUGUGGCUAGACUGCC [A25C G27C] | 0.39
54 | GGCAGAGCUCAACACAGCGUGGCAAAGUGGCUGUUGCUAGACUCCC [G35U G44C] | 0.07
55 | GGCAGAGCUCAACACAGCGUAGCAAAGUGGCUGUGGCUAUACUGCC [G21A G40U] | 0.19
56 | GGCAGAGCACAACACAGCGUGGCAAAGUGGCUGUGUCUAGACUGCC [U9A G36U] | 0.1

— the RNAGym collection of RNA variant scans (doi:10.7554/elife.90254)
